From paper PMC8625570, “Selectivity Determinants of RHO GTPase Binding to IQGAPs” (International Journal of Molecular Sciences, 2021)
Several values for one entry are separate records, joined by “and”; a condition that tells them apart may be missing. Equal entries are not always repeated.

B1: IQGAP2^C795 (C-terminal fragment of IQGAP2) (domain or fragment, human, UniProt Q13576 780-1575, looked up)
chain: PLTVIRKFVYLLDQSDLDFQEELEVARLREEVVTKIRANQQLEKDLNLMDIKIGLLVKNRITLEDVISHSKKLNKKKGGEMEILNNTDNQGIKSLSKERRKTLETYQQLFYLLQTNPLYLAKLIFQMPQNKSTKFMDTVIFTLYNYASNQREEYLLLKLFKTALEEEIKSKVDQVQDIVTGNPTVIKMVVSFNRGARGQNTLRQLLAPVVKEIIDDKSLIINTNPVEVYKAWVNQLETQTGEASKLPYDVTTEQALTYPEVKNKLEASIENLRRVTDKVLNSIISSLDLLPYGLRYIAKVLKNSIHEKFPDATEDELLKIVGNLLYYRYMNPAIVAPDGFDIIDMTAGGQINSDQRRNLGSVAKVLQHAASNKLFEGENEHLSSMNNYLSETYQEFRKYFKEACNVPEPEEKFNMDKYTDLVTVSKPVIYISIEEIISTHSLLLEHQDAIAPEKNDLLSELLGSLGEVPTVESFLGEGAVDPNDPNKANTLSQLSKTEISLVLTSKYDIEDGEAIDSRSLMIKTKKLIIDVIRNQPGNTLTEILETPATAQQEVDHATDMVSRAMIDSRTPEEMKHSQSMIEDAQLPLEQKKRKIQRNLRTLEQTGHVSSENKYQDILNEIAKDIRNQRIYRKLRKAELAKLQQTLNALNKKAAFYEEQINYYDTYIKTCLDNLKRKNTRRSIKLDGKGEPKGAKRAKPVKYTAAKLHEKGVLLDIDDLQTNQFKNVTFDIIATEDVGIFDVRSKFLGVEMEKVQLNIQDLLQMQYEGVAVMKMFDKVKVNVNLLIYLLNKKFYGK
notes: IQGAP2, aa 780-1575; also called IQGAP2^C975
B2: CDC42 (aa 1-178) (natural protein)
chain: not shown
B3: IQGAP1^C794 (C-terminal half of human IQGAP1 with the GRD, RGCT and CT domains) (domain or fragment, UniProt P46940 863-1657, looked up)
chain: DPPMVVVRKFVHLLDQSDQDFQEELDLMKMREEVITLIRSNQQLENDLNLMDIKIGLLVKNKITLQDVVSHSKKLTKKNKEQLSDMMMINKQKGGLKALSKEKREKLEAYQHLFYLLQTNPTYLAKLIFQMPQNKSTKFMDSVIFTLYNYASNQREEYLLLRLFKTALQEEIKSKVDQIQEIVTGNPTVIKMVVSFNRGARGQNALRQILAPVVKEIMDDKSLNIKTDPVDIYKSWVNQMESQTGEASKLPYDVTPEQALAHEEVKTRLDSSIRNMRAVTDKFLSAIVSSVDKIPYGMRFIAKVLKDSLHEKFPDAGEDELLKIIGNLLYYRYMNPAIVAPDAFDIIDLSAGGQLTTDQRRNLGSIAKMLQHAASNKMFLGDNAHLSIINEYLSQSYQKFRRFFQTACDVPELQDKFNVDEYSDLVTLTKPVIYISIGEIINTHTLLLDHQDAIAPEHNDPIHELLDDLGEVPTIESLIGESSGNLNDPNKEALAKTEVSLTLTNKFDVPGDENAEMDARTILLNTKRLIVDVIRFQPGETLTEILETPATSEQEAEHQRAMQRRAIRDAKTPDKMKKSKSVKEDSNLTLQEKKEKIQTGLKKLTELGTVDPKNKYQELINDIARDIRNQRRYRQRRKAELVKLQQTYAALNSKATFYGEQVDYYKSYIKTCLDNLASKGKVSKKPREMKGKKSKKISLKYTAARLHEKGVLLEIEDLQVNQFKNVIFEISPTEEVGDFEVKAKFMGVQMETFMLHYQDLLQLQYEGVAVMKLFDRAKVNVNLLIFLLNKKFYGK

Tests used:
RAC2 (aa 1-192) [1] = biological target: T1, RAC2 (aa 1-192) (human, UniProt P15153 1-192); assay: stopped-flow fluorescence spectrometry; association (kobs): 2 µM IQGAP1^C794 or IQGAP2^C795 mixed with 0.2 µM mGppNHp-bound RHO GTPase; 30 mM Tris-HCl pH 7.5, 10 mM K2HPO4/KH2PO4 pH 7.4, 2 mM MgCl2, 3 mM DTT, 25 °C; settings: both partners purified
RAC3 (aa 1-192) [2] = biological target: T2, RAC3 (aa 1-192) (human, UniProt P60763 1-192); assay: as above; settings: both partners purified
[3] = biological target: the molecule itself; assay: SEC; analytical SEC, Superdex 200 10/300, 30 mM Tris/HCl pH 7.5, 150 mM NaCl, 5 mM MgCl2; IQGAP1^C794 and IQGAP2^C795 alone or mixed with CDC42•GppNHp or RAC1•GppNHp; fractions on Coomassie-stained SDS-PAGE; MW from a calibration curve; design: reference not given here
CDC42 (aa 1-178) [4] = biological target: B2; assay: as above; design: reference not given here; settings: both partners purified
RAC1 (aa 1-179) [5] = biological target: T3, RAC1 (aa 1-179) (human, UniProt P63000 1-179); assay: as above; design: reference not given here; settings: both partners purified
[6] = biological target: B1; assay: stopped-flow fluorescence spectrometry; association (kobs): 2 µM IQGAP1^C794 or IQGAP2^C795 mixed with 0.2 µM mGppNHp-bound RHO GTPase; 30 mM Tris-HCl pH 7.5, 10 mM K2HPO4/KH2PO4 pH 7.4, 2 mM MgCl2, 3 mM DTT, 25 °C; settings: both partners purified
[7] = biological target: B3; assay: as above; settings: both partners purified
RAC2 (aa 1-192) [8] = biological target: T1, RAC2 (aa 1-192); assay: stopped-flow fluorescence spectrometry; kon from 0.2 µM mGppNHp-bound RHO GTPase with 2-8 µM IQGAP1^C794; koff by displacing with 10 µM unlabeled RAC1-GppNHp from 2 µM IQGAP1^C794 with 0.2 µM GTPase; Kd calculated from the rate constants; 25 °C; settings: both partners purified
RAC1 T25K/N26D = RAC1 T25K/N26D (human, UniProt P63000 1-179, T25K | N26D); assay: as above; settings: both partners purified
CDC42 (aa 1-178) [9] = biological target: B2; assay: as above; settings: both partners purified
RAC3 (aa 1-192) [10] = biological target: T2, RAC3 (aa 1-192); assay: as above; settings: both partners purified
RAC1 Q74D = RAC1 Q74D (human, UniProt P63000 1-179, Q74D); assay: as above; settings: both partners purified
RAC1 M45E/N52E = RAC1 M45E/N52E (human, UniProt P63000 1-179, M45E | N52E); assay: as above; settings: both partners purified
RAC1 (aa 1-179) [11] = biological target: T3, RAC1 (aa 1-179); assay: cell-based or functional assay

CDC42 (aa 1-178), sequence (P60953 1-178): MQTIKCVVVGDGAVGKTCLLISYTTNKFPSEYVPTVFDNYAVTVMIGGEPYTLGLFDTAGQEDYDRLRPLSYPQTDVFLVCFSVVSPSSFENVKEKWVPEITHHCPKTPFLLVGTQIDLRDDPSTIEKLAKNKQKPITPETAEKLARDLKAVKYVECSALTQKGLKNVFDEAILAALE

Row | binding result (RAC2 (aa 1-192) [1]) | binding result (RAC3 (aa 1-192) [2]) | stoichiometry N (CDC42 (aa 1-178) [4]) | stoichiometry N (RAC1 (aa 1-179) [5]) | binding result [6] | binding result [7] | Kd (RAC2 (aa 1-192) [8]) [nM] | fold faster kon than with RAC1 (RAC2 (aa 1-192) [8]) [fold] | fold lower Kd than with RAC1 (RAC2 (aa 1-192) [8]) [fold] | fold lower koff than with RAC1 (RAC2 (aa 1-192) [8]) [fold] | binding result (RAC1 T25K/N26D) | fold higher binding affinity than with RAC1 (CDC42 (aa 1-178) [9]) [fold] | binding result (RAC3 (aa 1-192) [10]) | binding result (RAC1 Q74D) | binding result (RAC1 M45E/N52E) | p50^GAP-stimulated GTP hydrolysis of tamraGTP-bound RAC1 (0.2 µM RAC1, 10 µM p50^GAP) in the presence of IQGAP1^C794 (RAC1 (aa 1-179) [11]) [fold] | Binder | stoichiometry N [3]
1 | binds | binds | 1 IQGAP per GTPase (printed as 2:2) | 1 IQGAP per GTPase (printed as 2:2) | – | – | – | – | – | – | – | – | – | – | – | – | B1 | 3 and 4
2 | – | – | – | – | binds | binds | – | – | – | – | – | – | – | – | – | – | B2 | 2
3 | – | – | 1 IQGAP per GTPase (printed as 2:2) | 1 IQGAP per GTPase (printed as 2:2) | – | – | 27 | 4 | 34 | 8 | binds | 3 | binds | binds | binds | 25 | B3 | 2
